For this assay, the target named is AP2 FLAP (full-length β2 subunit AP2 complex, i.e. AP2 lacking the α appendage and the α hinge) (UniProt P18484). Briefly: cryo-EM structure; cryo-electron tomography and subtomogram averaging of AP2 FLAP on liposomes with PtdIns(4,5)P2 and TGN38 YxxΦ lipopeptide, no clathrin, HKM2 buffer; ~9 Å.

A word on the stoichiometry N: it is a count of units in the complex or per binding partner.

“AP2 FLAP (full-length β2 subunit AP2 complex, i.e. AP2 lacking the α appendage and the α hinge) (from UniProt P18484 1-621; P63010 1-937; P84092 1-435; P62743 1-142)” gave a percent of AP2 dimerized of 20% and a stoichiometry N of 2.

Source of the values: PMC7375805.
